Test results reported in PMC7066533 (Frontiers in Pharmacology, 2020).
Square brackets hold non-standard residues; d marks the D form. βAla = NCCC(=O)O

Key:
human mu opioid receptor = target: T1, human mu opioid receptor (human, UniProt P35372 1-400); test: radioligand binding; displacement of 2.5 nM [3H]DAMGO (MOPr), 2 nM [3H]diprenorphine (DOPr) or 1 nM [3H]U69,593 (KOPr) from membranes of receptor-expressing HEK-293 cells; 25°C, 90 min, 100 mM Tris-HCl, 0.3% BSA; competitor 10^-12 to 10^-4 M; Ki from IC50 by Cheng-Prusoff; conditions: one partner purified
T1 construct: human mu opioid receptor, stably expressed in HEK-293 cells; membrane preparations used; also called hMOPr; MOPr; source: HEK-293 cells stably expressing hMOPr, cell membranes

[1] = target: T2, human kappa opioid receptor (human, UniProt P41145 1-380); test: as above; conditions: one partner purified
T2 construct: human kappa opioid receptor, stably expressed in HEK-293 cells; Functional rows in U87-MG cells and normal human astrocytes (endogenous human KOPr) are also written on this molecule; also called hKOPr; KOPr

[2] = target: T3, human delta opioid receptor (human, UniProt P41143 1-372); test: as above; conditions: one partner purified
T3 construct: human delta opioid receptor, stably expressed in HEK-293 cells; membrane preparations used; also called hDOPr; DOPr; source: HEK-293 cells stably expressing hDOPr, cell membranes

[3] = target: T2, human kappa opioid receptor; test: cell-based or functional assay

cyclo(FG[βAla][dW]) (SMILES O=C1CNC(=O)[C@H](Cc2ccccc2)NC(=O)[C@@H](Cc2c[nH]c3ccccc23)NC(=O)CCN1) [LOR17 (c[Phe-Gly-(β-Ala)-D-Trp])]
Ki (human mu opioid receptor): > 100000 nM
Ki [1]: 1.19 nM
Ki [2]: > 100000 nM
IC50 of inhibition of forskolin-induced cAMP accumulation, HEK-293/KOR cells [3]: 2.8 nM
IC50 of inhibition of forskolin-induced cAMP accumulation, U87-MG cells (endogenous KOPr) [3]: 3.1 nM
IC50 of inhibition of forskolin-induced cAMP accumulation, normal human astrocytes (endogenous KOPr) [3]: 3 nM
